Measurements as given in PMC7506556, “Structure and function of bacteriophage CBA120 ORF211 (TSP2), the determinant of phage specificity towards E. coli O157:H7” (Scientific Reports, 2020).

B1: E456A:E483A TSP1 (enzyme)
chain: MNEMFSQGGKGSTGILTNKQAVARHFGVKQSEVVYFSVGVDLGGYKVIYDKETQRAYSLPVGIASGTTAVSLSTAAVLVHSAGSVDLGSLAVSREEYVTLPGSFDSGSTLNVKNELLTYTDGKYRWDGILPKTVAPGSTPASTGGVGLGAWISVGDASLRTQLANGDGSLIGIHPQGTLNNVLTVRTPEQYNAVGDGIADDTSKLKEMLSDINNVPETLPDAAAVNSYMEQVAVKIDLTKLYRFTETLYIPPGVSIEIPTSNFFTRECKQGLFYDPVDKNTAAISLMVYRKQPDGSYKLNKDVDYYPTGLDIDNGDAITCARKIDINNLNLITAPGVKVGVKWIGGAGCTTKGLSIGENTGSDITTARLPRVGLLQSASWGSIHENLRILYKTQGAVFIDSNGGAAVNNAYISRLGNTNGELEQAVYKPAGFTEVGDVAVTQFAGSEVKFNSPIIAQASFDFVHAGRDTDSYGLFMVDKPHIASSGGKKKHSFYLINTSSNVTLSGVGLSGQDPDLDSMYFLKNCPETARNVVRGQMPISGVKLVRGTGNYPTLVLDCTNMGSQFQFGEVGDIFYIKDVVGVKADTLYIDPVNGNNYNWGTNGTKPIRELTNIAKICQLFRCKSVYLNAGESVITSNTELPMVVFEGPGSLKANSGSSFLIKAGGTLSLIGLSGISTDGGHMFRVSTVEKVNIHTNCSVNAGAAYVVLSEVQGNIEYRQLFYSVNCSKYIGATAGQTIAGIMVKTATRPTGIDAAPVDGNVSLTYKIIES
notes: source: E. coli BL21(DE3), purified similar to wild type TSPs
B2: E456Q:E483Q TSP1 (enzyme)
chain: MNEMFSQGGKGSTGILTNKQAVARHFGVKQSEVVYFSVGVDLGGYKVIYDKETQRAYSLPVGIASGTTAVSLSTAAVLVHSAGSVDLGSLAVSREEYVTLPGSFDSGSTLNVKNELLTYTDGKYRWDGILPKTVAPGSTPASTGGVGLGAWISVGDASLRTQLANGDGSLIGIHPQGTLNNVLTVRTPEQYNAVGDGIADDTSKLKEMLSDINNVPETLPDAAAVNSYMEQVAVKIDLTKLYRFTETLYIPPGVSIEIPTSNFFTRECKQGLFYDPVDKNTAAISLMVYRKQPDGSYKLNKDVDYYPTGLDIDNGDAITCARKIDINNLNLITAPGVKVGVKWIGGAGCTTKGLSIGENTGSDITTARLPRVGLLQSASWGSIHENLRILYKTQGAVFIDSNGGAAVNNAYISRLGNTNGELEQAVYKPAGFTEVGDVAVTQFAGSEVKFNSPIIQQASFDFVHAGRDTDSYGLFMVDKPHIQSSGGKKKHSFYLINTSSNVTLSGVGLSGQDPDLDSMYFLKNCPETARNVVRGQMPISGVKLVRGTGNYPTLVLDCTNMGSQFQFGEVGDIFYIKDVVGVKADTLYIDPVNGNNYNWGTNGTKPIRELTNIAKICQLFRCKSVYLNAGESVITSNTELPMVVFEGPGSLKANSGSSFLIKAGGTLSLIGLSGISTDGGHMFRVSTVEKVNIHTNCSVNAGAAYVVLSEVQGNIEYRQLFYSVNCSKYIGATAGQTIAGIMVKTATRPTGIDAAPVDGNVSLTYKIIES
notes: as for B1
B3: TSP2 D506N:D571N:Y623A mutant (enzyme, UniProt G3M190 1-921, looked up)
chain: MTRNVEELFGGVITAPHQIPFTYKSNVGGETFLSLPFYPVTGVVTINGGMQVPLDNFEIEGNTLNLGRALSKGDVVYCLFDKILSPEDTAKGIRIYKFQAVGGETEFTPDFTSYGVQSLYIGGEYKTPEIEYSYDSTTGKVSLQTALSAGVWVVAEMSVKQPNISPAFDRSIQEIARSANVKDSEVIVSTDTISLLDGKKVVYDIATQTSYGLPTIPDGSVISSVSAGKLNYNPGDVQVDLLPLEDSFINVINTLGRNDGAKYIGECHSVADLRNTEPTMDGQRIILKQHTAGTLLGGGVFRALIDGTGKTDNNGTVIKTVGGAAWLRVNADRVNPFMFGALGGSNDDTIPVQSCVDSGKATQLTDAHYVSNIQLKYNTSSIYGSGLHYSRLHQLPSATGNCITIKDTCSLIVLDAFGVYGTGAQQGTSFTAGTTGIYVETPSGLSADYPFHTTADPRRDLCISKVHIAGFDEYGLNIDSGNFSVTTDSLLVNHINQVGVRCATTNWTWTNIQVNTCGKQCLVLDGCGNGRIIGGKFIWANWQPYGTVGQFPGITINNSQNMVINGIEVQNCGGNGIEISESYSISMNGLNTNRNGINANNTFYNIVFNKSDAVINGFVGLNAAANSGSGANSSAGNFQFLSNDCSVTINGVVETGYMGINFIGDNNIINPTNSDLSINGLVNYSKTGLQTMNETPTFDGVSTTPVYVSVPSSVGQVNGLRLSQANKDKLLYSRTAGPEGITMAAVIVPTISGAEVFNFMAIGSGFSDTSNSLHLQLVIDASGKQTIALLLGGDGTTQILSGDLPNDLKLQSGVPYHIAIGAKPGYFWWSILNIQTGKRIRRSFRGAYLAVPFNSIFGLTSSLTFFSDSNAGGDACSGVGAKVYVGMFSSENDYVASRYYNLINPVDPTKLISYRILDSSI
notes: Made by Q5 site-directed mutagenesis of the TSP2 plasmid; source: E. coli BL21(DE3), purified similar to wild type TSPs

Columns and labels:
[1] = target: the molecule itself; test: not stated; purified TSP1 site-directed mutants; how the trimeric state was shown is not told
[2] = target: the molecule itself; test: not stated; purified TSP2 site-directed mutants; how the trimeric state was shown is not told

| Protein | stoichiometry N [1] | stoichiometry N [2] |
| --- | --- | --- |
| B1 | 3 | – |
| B2 | 3 | – |
| B3 | – | 3 |
